Consider five molecules from patent publication US20170183404A1 (VIB VZW, published 2017).

The target of experiment [1] is T1, truncDelta mMor1 reconstituted in liposomes (mouse, UniProt P42866 52-358).
T1 construct: The assayed protein lacks the N-terminal part before the TEV site and the C-terminal part after the 3C site; It was purified, doped with Dmt1-Dalda and reconstituted in DOPC/CHS/lipid A vesicles; also called truncDelta mMor1 liposome; recombinant mMOR1 reconstituted in liposomes
Description: ELISA (OD405), five-fold diluted periplasm, 10 µM Dmt1-Dalda; reference: mock liposomes. Here is the method:
DNPP (Sigma, cat nr 71768) was used to develop the colorimetric signal. Absorbance was measured at OD405 nm and results are depicted in FIG. 6. […] All VHHs tested confirm specific binding to truncDelta mMor1 reconstituted in liposomes. As truncDelta mMor1 is truncated at its N- and C-terminus, most likely these VHHs interact with extracellular or intracellular Mor1 conformational epitopes.
Background: ELISA stands for enzyme-linked immunosorbent assay.

The target of experiment [2] is T2, wild-type human Mor1 (human mu-type opioid receptor) (human, UniProt P35372 1-400).
T2 construct: Used as CHO membranes (Perkin Elmer ES-542-M400UA) in the radioligand assay and on transfected CHO cells in flow cytometry; also called WT hMor1/CHO; hMor1/CHO
T2 sequence (P35372 whole entry): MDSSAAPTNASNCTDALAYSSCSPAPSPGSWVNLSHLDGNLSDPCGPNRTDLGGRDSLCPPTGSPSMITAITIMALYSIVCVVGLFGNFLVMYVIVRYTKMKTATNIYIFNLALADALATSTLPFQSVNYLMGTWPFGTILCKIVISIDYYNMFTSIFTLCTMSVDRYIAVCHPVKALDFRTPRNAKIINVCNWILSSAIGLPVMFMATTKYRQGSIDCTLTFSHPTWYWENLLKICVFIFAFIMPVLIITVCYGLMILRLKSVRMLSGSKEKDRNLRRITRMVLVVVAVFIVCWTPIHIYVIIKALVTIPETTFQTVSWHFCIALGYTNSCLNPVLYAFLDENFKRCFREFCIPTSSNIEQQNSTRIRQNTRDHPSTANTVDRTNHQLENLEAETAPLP
Description: displacement of 1 nM [3H]-diprenorphine from WT hMor1/CHO membranes by a concentration range of XA8635. Here is the method: The mixture was incubated for 1 hour at RT and after washing, filter bound radioligand was measured.

Numbering of substitutions follows the chain as printed. Where only a bound is given, the exact number is not on record here.

T1 sequence (P42866 52-358, tags or fused parts left off): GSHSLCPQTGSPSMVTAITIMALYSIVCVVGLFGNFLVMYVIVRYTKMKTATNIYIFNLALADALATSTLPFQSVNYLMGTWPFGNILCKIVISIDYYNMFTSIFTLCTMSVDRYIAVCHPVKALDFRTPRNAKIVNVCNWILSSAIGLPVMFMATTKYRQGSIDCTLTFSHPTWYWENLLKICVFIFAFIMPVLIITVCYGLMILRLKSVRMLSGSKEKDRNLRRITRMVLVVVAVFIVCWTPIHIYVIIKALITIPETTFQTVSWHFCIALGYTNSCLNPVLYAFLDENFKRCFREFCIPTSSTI

B1: XA8727 (VHH)
VHH: QVQLVESGGGLVQAGGSLRLSCAASGFTFDDYAIAWFRQAPGKEREGVSCISSSDGSTYYADSVKGRFTISNDNAKNTVYLQMNSLKPEDTAVYYCAADLSRSCGRGYRYLEVWGQGTQVTVSS
notes: Tested as periplasmic extract; also called 599D2; Profile III VHH
For the molecule B1, the “absorbance on truncDelta mMor1 liposomes relative to mock liposomes” value in experiment [1] is at least 3 fold.

B2: XA8643 (VHH)
VHH: QVQLVESGGGLVRPGGSLRLSCVDSERTSYPMGWFRRAPGKEREFVASITWSGIDPTYADSVADRFTISRDVANNTLYLQMNSLKHEDTAVYYCAARAPVGQSSSPYDYDYWGQGTQVTVSS
notes: Tested as periplasmic extract; also called 598G11; X8643
For the molecule B2, the “absorbance on truncDelta mMor1 liposomes relative to mock liposomes” value in experiment [1] is at least 3 fold.

B3: XA8639 (VHH)
VHH: B2 VHH with I68T
notes: also called 598A7; Nb39
As for B3, the “absorbance on truncDelta mMor1 liposomes relative to mock liposomes” value in experiment [1] is at least 3 fold.

B4: XA8641 (VHH)
VHH: B2 VHH with E26G
notes: Tested as periplasmic extract; also called 598A2; Profile I VHH
With B4, the “absorbance on truncDelta mMor1 liposomes relative to mock liposomes” value in experiment [1] is at least 3 fold.

B5: XA8635 (VHH)
VHH: QVQLVESGGGLVQAGGSLRLSCAASGSISSISTMGWYRQAPGNERELVAAITSGGSTNYADSVKGRFTISRDNAKNTVYLQMNSLKPEDTAVYYCNFKYYSGSYFYKSEYDYWGQGTQVTVSS
notes: Tested as periplasmic extract and as purified protein; also called 601H10; monovalent XA8635
Take B5: the binding result in experiment [2] is reported as “binds”. In addition, the “absorbance on truncDelta mMor1 liposomes relative to mock liposomes” value in experiment [1] was at least 3 fold.
